EC50 and IC50 data for 1 molecule are collected here from patent US20230340112A1 (published 2023).

For assay [1], the target named is T1, mDC cell surface SIRPα (human, UniProt P78324 31-504). In words: FACS binding; Donor #296.
For assay [2], the target named is T2, cell-surface SIRPα (mDC) (human, UniProt P78324 31-504). In words: FACS blocking of CD47/SIRPα; Donor #298.
For assay [3], the target named is T2, cell-surface SIRPα (mDC). In words: FACS blocking of CD47/SIRPα; Donor #296.
The target in assay [4] is T1, mDC cell surface SIRPα. Briefly: FACS binding; Donor #298.

T2 sequence (P78324 31-504): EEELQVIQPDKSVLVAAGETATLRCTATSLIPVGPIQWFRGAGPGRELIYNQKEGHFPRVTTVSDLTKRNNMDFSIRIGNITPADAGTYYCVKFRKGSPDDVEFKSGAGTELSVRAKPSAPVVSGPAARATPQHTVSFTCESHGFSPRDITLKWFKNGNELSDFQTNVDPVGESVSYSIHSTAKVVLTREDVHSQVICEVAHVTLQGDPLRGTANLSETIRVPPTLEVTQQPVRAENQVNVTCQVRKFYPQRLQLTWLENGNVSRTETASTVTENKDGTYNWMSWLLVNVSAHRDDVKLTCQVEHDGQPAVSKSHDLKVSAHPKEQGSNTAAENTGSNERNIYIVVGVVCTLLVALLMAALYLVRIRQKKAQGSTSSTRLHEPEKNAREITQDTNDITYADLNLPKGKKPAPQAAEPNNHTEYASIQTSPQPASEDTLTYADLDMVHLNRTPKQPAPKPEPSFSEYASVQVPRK
T1 sequence (P78324 31-504): as above

B1: OSE-172 (antibody, V domains shown)
VH: EVQLVQSGAEVKKPGESLRISCKASGYSFTSYWVHWVRQMPGKGLEWMGNIDPSDSDTHYSPSFQGHVTLSVDKSISTAYLQLSSLKASDTAMYYCVRGGTGTLAYFAYWGQGTLVTVSS
VL: DVVMTQSPLSLPVTLGQPASISCRSSQSLVHSYGNTYLYWFQQRPGQSPRLLIYRVSNRFSGVPDRFSGSGSGTDFTLKISRVEAEDVGVYYCFQGTHVPYTFGGGTKVEIKR
For the molecule B1, the EC50 in the assay with mDC cell surface SIRPα [1] came to 0.768 nM; in the assay with mDC cell surface SIRPα [4] it was 1.27 nM. The IC50 with cell-surface SIRPα (mDC) [2] was determined as 1.77 nM; in the assay with cell-surface SIRPα (mDC) [3] it was 1.25 nM.
